Experimental data as given in patent publication US20170137467A1 (CHROMOTEK, published 2017).
Blank lines part the entries; values can stand above or below the binder they belong to. Ends that are not written are not given here. * marks the point of attachment. Biotin = O=C1N[C@H]2[C@H](CS[C@H]2CCCCC(=O)*)N1; ethylene glycol linker = not defined here

Tests used:
[1] = biological target: T1, GFP with a C-terminal BC2 tag (GFPBC2T) (human, UniProt P42212 1-238 = GFP); assay: binding studies with GFPBC2T
T1 construct: Expressed in E. coli; also called C-terminally BC2-tagged GFP

[2] = biological target: T2, eGFP-PCNA with C-terminal BC2 tag (eGFP-PCNABC2T) (human, UniProt P12004 1-261); assay: immunocytochemistry on fixed HeLa cells expressing GFP-PCNABC2T
T2 construct: Expressed in HEK293T or HeLa cells; not shown: eGFP
T2 sequence (P12004 other isoform, or with tags, fused parts or gaps limits assumed): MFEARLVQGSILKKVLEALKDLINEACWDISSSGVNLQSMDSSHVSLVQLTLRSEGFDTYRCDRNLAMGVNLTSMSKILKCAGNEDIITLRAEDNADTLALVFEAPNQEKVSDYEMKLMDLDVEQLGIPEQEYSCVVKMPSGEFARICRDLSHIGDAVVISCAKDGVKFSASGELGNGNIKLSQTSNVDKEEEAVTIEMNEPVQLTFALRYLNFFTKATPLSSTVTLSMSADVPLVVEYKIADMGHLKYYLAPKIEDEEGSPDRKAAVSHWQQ
Method: After 24 h, cells were washed once with PBS and fixed with 4% w/v paraformaldehyde (PFA) in PBS for 15 min at RT or with methanol for 15 min at −20° C. After removal of the fixative and washing twice with PBS, cells were blocked and permeabilized with 3% w/v BSA and 0.1% v/v Triton X-100 in PBS for 1 h at RT. […] Unbound nanobody and DAPI were removed by washing 3 times with a mixture of PBS and 6% v/v 5 M NaCl in H₂O. Images of FIG. 4 b and FIG. 10 b were acquired with an Image Xpress micro XL system. Confocal images of FIG. 10 a were acquired with an ImageXpress Micro Confocal.

BC2T H9D library peptide = biological target: T3, BC2T H9D library peptide (human); assay: peptide library pulldown on immobilized Nb, LC-MS of supernatant; ratio vs GFP-Nb control (1 = not captured, 0 = captured)
T3 peptide: Ac-PDRKAAVSDWQQ-NH2
Description: (§1) In total, 12 different BC2T libraries displaying all 20 proteinogenic amino acids in one single position of the peptide were used in immunoprecipitation experiments. […] The direct comparison with the GFP-Nb made it possible to determine the quantitative degree of peptide capture without the need of labeled standards. […] The more peptide was captured the more the value approximates 0. It was not possible to discriminate between isoleucine (I) and leucine (L) peptide versions since these peptides are isobaric.
(§2) To investigate the binding specificity of the BC2T and derived mutants peptide libraries for each amino acid position of the sequence […] (SEQ ID NO:4) were synthesized with acetyl and amide groups located at the N-termini or C-termini respectively (Intavis). […] Incubations were performed in 300 μl PBS/0.01% CHAPS for 1 h on a HulaMixer (Life Technologies). Subsequent to a centrifugation step 10 μl supernatant were analyzed in a LC-MS procedure. Peptides were separated using an UltiMate3000 RSLCnano System (Thermo Scientific), composed of a C18 PepMap100μ-Precolumn (300 μm×5 mm; particle size: 5 μm; pore size: 100 Å—Thermo Scientific) and a C18 analytical column (Acclaim Rapid Separation LC (RSLC) Column: 150 mm×5 mm; particle size: 2.2 μm; pore size: 100 Å—Thermo Scientific). A step gradient was applied starting at 8% and ending after 20 min at 30% eluent B (80% acetonitrile, 20% H₂O, 0.1% formic acid).

BC2T S8D library peptide = biological target: T4, BC2T S8D library peptide (human); assay: as above
T4 construct: also called BC2TS8X: D
T4 peptide: Ac-PDRKAAVDHWQQ-NH2
Description: as §1, §2

BC2T H9E library peptide = biological target: T5, BC2T H9E library peptide (human); assay: as above
T5 peptide: Ac-PDRKAAVSEWQQ-NH2
Description: as §1, §2

[3] = biological target: T6, BC2T Q12E library peptide (human); assay: as above
T6 peptide: Ac-PDRKAAVSHWQE-NH2
Description: as §1, §2

BC2T S8E library peptide = biological target: T7, BC2T S8E library peptide (human); assay: as above
T7 construct: also called BC2TS8X: E
T7 peptide: Ac-PDRKAAVEHWQQ-NH2
Description: as §1, §2

[4] = biological target: T8, BC2T W10E library peptide (human); assay: as above
T8 construct: also called BC2TW10X: E
T8 peptide: Ac-PDRKAAVSHEQQ-NH2
Description: as §1, §2

[5] = biological target: T9, BC2T Q11D library peptide (human); assay: as above
T9 peptide: Ac-PDRKAAVSHWDQ-NH2
Description: as §1, §2

[6] = biological target: T10, BC2T W10D library peptide (human); assay: as above
T10 construct: also called BC2TW10X: D
T10 peptide: Ac-PDRKAAVSHDQQ-NH2
Description: as §1, §2

[7] = biological target: T11, BC2T Q12D library peptide (human); assay: as above
T11 peptide: Ac-PDRKAAVSHWQD-NH2
Description: as §1, §2

[8] = biological target: T12, BC2T Q11E library peptide (human); assay: as above
T12 peptide: Ac-PDRKAAVSHWEQ-NH2
Description: as §1, §2

[9] = biological target: T13, BC2T peptide (biotinylated) (human, reading uncertain); assay: BLI, biotinylated peptide on streptavidin biosensor, BC2-Nb in solution, 1:1 model
T13 construct: Immobilised on streptavidin biosensors; also called original BC2T; wildtype BC2T
T13 peptide: {Biotin-ethylene glycol linker}-PDRKAAVSHWQQ
Method: (§3) Biolayer interferometry (BLI)-based affinity measurements were used to assess two improved variations of the original BC2T sequence (a: […], pTag1 SEQ ID NO:33; b: […], pTag2 SEQ ID NO:34) in comparison with the original BC2T sequence (c: BC2T SEQ ID NO:4).
(§4) The shaking rate was 1200 rpm. As a reference, each peptide was also incubated with BLItz buffer only according to the protocol above. […] The sensor was regenerated by sequential dips into 10 mM glycine pH 2.0 and BLItz buffer (repeated three times). Raw data were analysed using the software BLItz Pro (fortéBio) and a 1:1 binding model.

[10] = biological target: T14, pTag1 peptide (biotinylated) (reading uncertain); assay: as above
T14 construct: Immobilised on streptavidin biosensors
T14 peptide: {Biotin-ethylene glycol linker}-PDRVRAVSHWSS
Method: as §3, §4

[11] = biological target: T15, pTag2 peptide (biotinylated) (reading uncertain); assay: as above
T15 construct: Immobilised on streptavidin biosensors
T15 peptide: {Biotin-ethylene glycol linker}-ADRVRAVSHWSS
Method: as §3, §4

[12] = biological target: T16, mCherry-Vimentin (untagged) (UniProt P08670 1-466); assay: Western blot probed with BC2-NbAF488
T16 construct: Control without the BC2 tag; not shown: mCherry fluorescent protein
T16 sequence (P08670 whole entry): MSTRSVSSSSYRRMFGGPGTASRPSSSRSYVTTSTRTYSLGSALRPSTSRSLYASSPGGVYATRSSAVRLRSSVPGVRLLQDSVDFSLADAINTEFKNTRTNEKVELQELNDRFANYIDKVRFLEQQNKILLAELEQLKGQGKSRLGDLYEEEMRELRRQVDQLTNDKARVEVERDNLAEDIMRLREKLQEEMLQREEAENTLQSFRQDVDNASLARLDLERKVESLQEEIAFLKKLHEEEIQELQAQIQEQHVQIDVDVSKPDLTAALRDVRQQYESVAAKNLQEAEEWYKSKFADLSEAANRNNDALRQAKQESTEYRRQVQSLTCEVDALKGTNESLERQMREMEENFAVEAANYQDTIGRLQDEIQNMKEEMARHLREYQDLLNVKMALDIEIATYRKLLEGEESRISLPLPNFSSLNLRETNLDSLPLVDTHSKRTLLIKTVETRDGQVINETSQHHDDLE

[13] = biological target: T17, mCherry-Vimentin with C-terminal BC2 tag (mCherry-VIMBC2T) (human, UniProt P08670 1-466); assay: Western blot probed with BC2-NbAF488
T17 construct: Expressed in HEK293T or HeLa cells; also called mCherry-VimentinBC2T; not shown: mCherry fluorescent protein
T17 sequence (P08670 other isoform, or with tags, fused parts or gaps): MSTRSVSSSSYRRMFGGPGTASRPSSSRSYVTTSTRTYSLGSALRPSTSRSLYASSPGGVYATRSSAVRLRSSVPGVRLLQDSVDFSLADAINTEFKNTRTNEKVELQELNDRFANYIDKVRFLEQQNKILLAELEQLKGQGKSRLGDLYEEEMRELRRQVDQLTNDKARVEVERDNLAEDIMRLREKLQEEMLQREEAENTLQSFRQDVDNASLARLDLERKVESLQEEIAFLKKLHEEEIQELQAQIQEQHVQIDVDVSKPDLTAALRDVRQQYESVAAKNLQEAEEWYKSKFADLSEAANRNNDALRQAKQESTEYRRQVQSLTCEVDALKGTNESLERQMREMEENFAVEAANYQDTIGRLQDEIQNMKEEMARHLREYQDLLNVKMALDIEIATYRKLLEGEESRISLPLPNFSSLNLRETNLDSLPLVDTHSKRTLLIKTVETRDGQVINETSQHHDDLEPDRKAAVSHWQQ

[14] = biological target: T2, eGFP-PCNA with C-terminal BC2 tag …; assay: Western blot probed with BC2-NbAF488

B3: BC2-Nb(R106S) (VHH)
VHH: QVQLVESGGGLVQPGGSLTLSCTASGFTLDHYDIGWFRQAPGKEREGVSCINNSDDDTYYADSVKGRFTIFMDNAKDTVYLQMNSLKPEDTAIYYCAEARGCKRGSYEYDFWGQGTQVTVSS
notes: Headlock mutant; immobilized on beads in the library pulldown
ratio (BC2T H9D library peptide): 0.5 | ratio (BC2T S8D library peptide): 0.9 | ratio (BC2T H9E library peptide): 0.6 | ratio [3]: 0.7 | ratio (BC2T S8E library peptide): 1 | ratio [4]: 1.1 | ratio [5]: 0.6 | ratio [6]: 1 | ratio [7]: 0.9 | ratio [8]: 0.5

B4: BC2 nanobody (BC2-Nb) (VHH)
VHH: QVQLVESGGGLVQPGGSLTLSCTASGFTLDHYDIGWFRQAPGKEREGVSCINNSDDDTYYADSVKGRFTIFMDNAKDTVYLQMNSLKPEDTAIYYCAEARGCKRGRYEYDFWGQGTQVTVSS
notes: Alpaca VHH, 122 aa; in solution at 5-50 nM in the BLI assay
Kd [9]: 2.6 nM | koff [9]: 0.0005 s⁻¹ | kon [9]: 190000 M⁻¹ s⁻¹ | Kd [10]: 0.7 nM | koff [10]: 6.8e-05 s⁻¹ | kon [10]: 92000 M⁻¹ s⁻¹ | Kd [11]: 1.9 nM | koff [11]: 0.0002 s⁻¹ | kon [11]: 110000 M⁻¹ s⁻¹

Now from value to binder:

binding result [1]: no binding
B1: BC2-NbC50A_C102S (VHH)
VHH: QVQLVESGGGLVQPGGSLTLSCTASGFTLDHYDIGWFRQAPGKEREGVSAINNSDDDTYYADSVKGRFTIFMDNAKDTVYLQMNSLKPEDTAIYYCAEARGSKRGRYEYDFWGQGTQVTVSS
notes: Mutant without the additional disulfide bond between CDR3 and FR2

binding result [2]: binds
B2: BC2-NbATTO647 (VHH)
VHH: QVQLVESGGGLVQPGGSLTLSCTASGFTLDHYDIGWFRQAPGKEREGVSCINNSDDDTYYADSVKGRFTIFMDNAKDTVYLQMNSLKPEDTAIYYCAEARGCKRGRYEYDFWGQGTQVTVSS
modifications: Atto647 coupled chemically with the NHS-activated dye (sites not given)
notes: also called fluorescently labeled BC2-Nb (ATTO647); not shown: C-terminal 6xHis-tag added by the pHEN6 vector

binding result [12]: no binding | binding result [13]: binds | binding result [14]: binds
B5: BC2-NbAF488 (VHH)
VHH: QVQLVESGGGLVQPGGSLTLSCTASGFTLDHYDIGWFRQAPGKEREGVSCINNSDDDTYYADSVKGRFTIFMDNAKDTVYLQMNSLKPEDTAIYYCAEARGCKRGRYEYDFWGQGTQVTVSS
modifications: AlexaFluor488 coupled chemically with the NHS-activated dye (sites not given)
notes: also called BC2-Nb488; fluorescently labeled BC2-Nb (AlexaFluor488); not shown: C-terminal 6xHis-tag added by the pHEN6 vector
